Laboratory results taken from PMC4977154, “Structural mechanism of ligand activation in human calcium-sensing receptor” (eLife, 2016).

How the values were obtained:
[1] = molecular target: the molecule itself; assay: SEC; Superdex-200 size exclusion chromatography of secreted wild-type CaSR ECD; 20 mM Tris pH 8.0, 150 mM NaCl
[2] = molecular target: the molecule itself; assay: SDS gel under reducing and non-reducing conditions; purified CaSR ECD mutant (N386Q, S402N, N468Q) after Superdex-200, with (+DTT) and without (-DTT) reducing agent
[3] = molecular target: the molecule itself; assay: crystal structure; form I crystal, space group F222, one molecule per asymmetric unit, homodimer with a crystallographic symmetry-related molecule; 1.5 M Li2SO4, 100 mM Tris pH 8.5, 2 mM CaCl2, 20°C; inactive (open-open) state

B1: wild-type human CaSR ECD (domain or fragment, UniProt P41180 20-612, looked up)
chain: YGPDQRAQKKGDIILGGLFPIHFGVAAKDQDLKSRPESVECIRYNFRGFRWLQAMIFAIEEINSSPALLPNLTLGYRIFDTCNTVSKALEATLSFVAQNKIDSLNLDEFCNCSEHIPSTIAVVGATGSGVSTAVANLLGLFYIPQVSYASSSRLLSNKNQFKSFLRTIPNDEHQATAMADIIEYFRWNWVGTIAADDDYGRPGIEKFREEAEERDICIDFSELISQYSDEEEIQHVVEVIQNSTAKVIVVFSSGPDLEPLIKEIVRRNITGKIWLASEAWASSSLIAMPQYFHVVGGTIGFALKAGQIPGFREFLKKVHPRKSVHNGFAKEFWEETFNCHLQEGAKGPLPVDTFLRGHEESGDRFSNSSTAFRPLCTGDENISSVETPYIDYTHLRISYNVYLAVYSIAHALQDIYTCLPGRGLFTNGSCADIKKVEAWQVLKHLRHLNFTNNMGEQVTFDECGDLVGNYSIINWHLSPEDGSIVFKEVGYYNVYAKKGERLFINEEKILWSGFSREVPFSNCSRDCLAGTRKGIIEGEPTCCFECVECPDGEYSDETDASACNKCPDDFWSNENHTSCIAKEIEFLSWTEPF
modifications: heavily glycosylated
notes: signal peptide in the construct; human calcium-sensing receptor (CaSR), extracellular domain, residues 1-612; The C-terminal Flag tag is told for 'each construct' in the paragraph on the mutants; the wild type was also purified on anti-Flag M2 and held by anti-Flag M2 in the scintillation proximity assay with L-Trp (not a protein-protein experiment); also called wt-CaSR ECD; extracellular domain …
[1]
  binding result: binds

B2: human CaSR ECD mutant carrying three glycosylation-site mutations (N386Q, S402N and N468Q) (domain or fragment, UniProt P41180 20-612, looked up)
chain: YGPDQRAQKKGDIILGGLFPIHFGVAAKDQDLKSRPESVECIRYNFRGFRWLQAMIFAIEEINSSPALLPNLTLGYRIFDTCNTVSKALEATLSFVAQNKIDSLNLDEFCNCSEHIPSTIAVVGATGSGVSTAVANLLGLFYIPQVSYASSSRLLSNKNQFKSFLRTIPNDEHQATAMADIIEYFRWNWVGTIAADDDYGRPGIEKFREEAEERDICIDFSELISQYSDEEEIQHVVEVIQNSTAKVIVVFSSGPDLEPLIKEIVRRNITGKIWLASEAWASSSLIAMPQYFHVVGGTIGFALKAGQIPGFREFLKKVHPRKSVHNGFAKEFWEETFNCHLQEGAKGPLPVDTFLRGHEESGDRFSQSSTAFRPLCTGDENINSVETPYIDYTHLRISYNVYLAVYSIAHALQDIYTCLPGRGLFTNGSCADIKKVEAWQVLKHLRHLQFTNNMGEQVTFDECGDLVGNYSIINWHLSPEDGSIVFKEVGYYNVYAKKGERLFINEEKILWSGFSREVPFSNCSRDCLAGTRKGIIEGEPTCCFECVECPDGEYSDETDASACNKCPDDFWSNENHTSCIAKEIEFLSWTEPF
modifications: N-acetyl-glucosamine seen at Asn90, Asn287, Asn488, Asn541 of one protomer and Asn541 of the other
notes: signal peptide in the construct; human calcium-sensing receptor (CaSR), extracellular domain, residues 1-612; modelled residues 20-119, 135-359, 393-598 in one protomer and 22-122, 136-360, 392-602 in the other; Disulfide-tethered homodimer; cloned into the pFBDM vector; also called calcium-sensing receptor extracellular domain; form II crystal protein; source: sf9 insect cells infected with …
[2]
  binding result: binds

B3: human CaSR ECD mutant carrying two glycosylation-site mutations (N386Q, S402N), partially deglycosylated with Endo H (domain or fragment, UniProt P41180 20-612, looked up)
chain: YGPDQRAQKKGDIILGGLFPIHFGVAAKDQDLKSRPESVECIRYNFRGFRWLQAMIFAIEEINSSPALLPNLTLGYRIFDTCNTVSKALEATLSFVAQNKIDSLNLDEFCNCSEHIPSTIAVVGATGSGVSTAVANLLGLFYIPQVSYASSSRLLSNKNQFKSFLRTIPNDEHQATAMADIIEYFRWNWVGTIAADDDYGRPGIEKFREEAEERDICIDFSELISQYSDEEEIQHVVEVIQNSTAKVIVVFSSGPDLEPLIKEIVRRNITGKIWLASEAWASSSLIAMPQYFHVVGGTIGFALKAGQIPGFREFLKKVHPRKSVHNGFAKEFWEETFNCHLQEGAKGPLPVDTFLRGHEESGDRFSQSSTAFRPLCTGDENINSVETPYIDYTHLRISYNVYLAVYSIAHALQDIYTCLPGRGLFTNGSCADIKKVEAWQVLKHLRHLNFTNNMGEQVTFDECGDLVGNYSIINWHLSPEDGSIVFKEVGYYNVYAKKGERLFINEEKILWSGFSREVPFSNCSRDCLAGTRKGIIEGEPTCCFECVECPDGEYSDETDASACNKCPDDFWSNENHTSCIAKEIEFLSWTEPF
modifications: partially deglycosylated with Endo H; N-acetyl-glucosamine seen at Asn261, Asn287, Asn446, Asn468, Asn488, Asn541, Asn594; inter-subunit disulfide bond formed by C129
notes: signal peptide in the construct; human calcium-sensing receptor (CaSR), extracellular domain, residues 1-612; modelled residues 21-130 and 136-603; Disulfide-linked homodimer; cloned into the pFBDM vector; also called calcium-sensing receptor extracellular domain; form I crystal protein; source: sf9 insect cells infected with baculovirus, with kifunensine, secreted
[3]
  binding result: binds
